Experimental data from the supplement of paper PMC12764529.
± gives the half width of the 95% confidence interval.

Tests used:
[1] = folding stability dG unfold from chymotrypsin proteolysis; higher = more stable
In short: (§1)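 How resistant each design was to proteolysis was captured as K50, inferred by Bayesian fitting of sequencing counts. Unfolding free energy was then derived relative to a sequence-predicted unfolded-state K50 and a shared folded-state K50, per protease or combined. Digestion used trypsin and chymotrypsin at 11 threefold-diluted concentrations plus a no-protease condition, on mini-proteins under 80 residues without cysteine in a PA-tagged cDNA display construct. Designs were kept only when AlphaFold2 dimer inter-PAE was above 15.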

[2] = folding stability dG unfold from trypsin proteolysis; higher = more stable
In short: as §1

[3] = folding stability dG unfold (combined trypsin and chymotrypsin); higher = more stable
In short: as §1

Row | Sequence | folding stability dG unfold [1] [kcal/mol] | folding stability dG unfold [2] [kcal/mol] | folding stability dG unfold [3] [kcal/mol]
1 | SMKIKIEPLPDGSYRLVAEVPEDAEETENLFPLTGKPIVVKREKNKLVIEFDNPEEVELFAEALKKNIPLSA [r9_515_TrMRF] | 1.54 ± 0.084 | 1.28 ± 0.032 | 1.47 ± 0.12
2 | SADRIKINVMTHQSPDGRPYYMVSIRIPGNGKEIMGPIDSPEDAEEQAKEIADKLEKEGIPIEVEIYPMSAG [r14_263_TrROS] | 1.82 ± 0.09 | 2.13 ± 0.066 | 1.94 ± 0.17
3 | SAGGSAGGMKTITIELPPGPVRIRVRLAATGEEVTVEVDAETPTVTITIPEEGAEIVEIEIEPVSAGGSAGG [r6_977_TrROS_Hall] | 2.66 ± 0.13 | 2.06 ± 0.065 | 2.59 ± 0.18
4 | SAGGSAGGSAGGPVRLLVLEVPVENVEEVVRRLEALGSVRPVRVERLPGDRYRVLVVSPLSAGGSAGGSAGG [r7_589_TrMRF] | 1.54 ± 0.05 | 1.3 ± 0.046 | 1.46 ± 0.056
5 | SAGGSAGGSAGDTSVEYEVSVTVEVFPLPDYALVKVTLEVDYPDGSKEKVEYVFLVSPYEGSAGGSAGGSAG [r3_330_TrMRF] | 3.35 ± 0.082 | 2.56 ± 0.19 | 3.04 ± 0.1
6 | SAGGMIVEEETKPTPPLPDGTLVTESKVTIYINGKKITTTVKTTTLPDGTKVVETTLKGKKLKIILESAGGS [r16_448_JUSTAS] | 3.193 ± 0.027 | 2.26 ± 0.07 | 2.98 ± 0.075
7 | SAGGETKTLTIKFYDPKTGKLVAEVTITYTPEKVTVTIRFADGTTETVEMTAEELLAKLPPGAVIVPSAGGS [r16_543_TrROS_Hall] | 4.46 ± 0.22 | 3.79 ± 0.11 | 4.31 ± 0.16
8 | SAGGSAGGSALIIVAPDGFIISIEWPNGKPRTIMMPPDEIDEILEDDGIKDIEIQKLPPGASAGGSAGGSAG [r3_141_TrROS] | 1.49 ± 0.036 | 0.388 ± 0.05 | 1.14 ± 0.074
9 | PNFKIDIEIIKAEEVPPRPTDDGKPQPVRRIHIRIEVKGPPDQPPELANNIVEEIMAELQELGLPVHIHVWS [r1_305_TrROS] | 1.91 ± 0.075 | 1.62 ± 0.054 | 1.83 ± 0.21
10 | SAMKVTVKPTTLPDGTTVVVTTEPDKIVAYGTYNGDSFTSESLPDGTVVTTAKKPGGVLVTSPTDPNLESAG [r14_213_JUSTAS] | 0.112 ± 0.14 | 0.26 ± 0.02 | 0.265 ± 0.074
11 | SAGGSAGGSAGGAPVEVKTAVFRHPDNPRWYVLRVARLPGTGRLVVVLFDPETGEFAVFPSAGGSAGGSAGG [r7_923_TrMRF] | 2.18 ± 0.16 | 0.755 ± 0.087 | 1.67 ± 0.16
12 | SAGGSAGGSKKKVKVEIVEYDPETKKVTVRVTVDGKEYEFTFSTPEELEAAAKAGKIDEITLTSAGGSAGGS [r12_421_TrROS_Hall] | 2.29 ± 0.043 | 2.26 ± 0.059 | 2.26 ± 0.066
13 | SAGSYKLVVKAKAPKGPARIRVFVRLPGGEEKPVAEAEVGSGEVADIEITFPSGKPIDPKNIRVEIVPPSAG [r5_287_TrMRF] | 1.65 ± 0.066 | 1.88 ± 0.03 | 1.8 ± 0.058
14 | SAGGSAGGSAGGGMMLAEFLKYDPRNPTATVVSVRTFSDPEEARAEAEKRGLLVRVIEPSAGGSAGGSAGGS [r10_657_JUSTAS] | 0.0192 ± 0.16 | -0.45 ± 0.28 | -0.111 ± 0.1
15 | SAGGSAGGSAGGPFPFKIDSVEWETTDNKRYYEIKLEFPNGNPVTIHMPPNNPDDVKDAISAGGSAGGSAGG [r7_365_TrROS] | -0.00838 ± 0.25 | 0.232 ± 0.071 | 0.144 ± 0.2
16 | SAGGSAGGSASPQVVEVLSTVPLPGSNIVIEKTSDASGNSYVYDPNTGKWFSPEEAKKLLSSAGGSAGGSAG [r3_206_JUSTAS] | 1.73 ± 0.077 | 0.84 ± 0.057 | 1.5 ± 0.1
17 | SAGGSAGGSAGMRLLTVEYFDENGNPLSVEEIELYIERPPPPFLELEIDPRTGEPRFTGLSAGGSAGGSAGG [r17_348_JUSTAS] | 1.68 ± 0.068 | 1.01 ± 0.078 | 1.36 ± 0.14
